Source: IntAct's records for PubMed 9845368

B1: Phytochrome B (Arabidopsis thaliana (Mouse-ear cress)), P14713 (parent)
chain: MVSGVGGSGGGRGGGRGGEEEPSSSHTPNNRRGGEQAQSSGTKSLRPRSNTESMSKAIQQYTVDARLHAVFEQSGESGKSFDYSQSLKTTTYGSSVPEQQITAYLSRIQRGGYIQPFGCMIAVDESSFRIIGYSENAREMLGIMPQSVPTLEKPEILAMGTDVRSLFTSSSSILLERAFVAREITLLNPVWIHSKNTGKPFYAILHRIDVGVVIDLEPARTEDPALSIAGAVQSQKLAVRAISQLQALPGGDIKLLCDTVVESVRDLTGYDRVMVYKFHEDEHGEVVAESKRDDLEPYIGLHYPATDIPQASRFLFKQNRVRMIVDCNATPVLVVQDDRLTQSMCLVGSTLRAPHGCHSQYMANMGSIASLAMAVIINGNEDDGSNVASGRSSMRLWGLVVCHHTSSRCIPFPLRYACEFLMQAFGLQLNMELQLALQMSEKRVLRTQTLLCDMLLRDSPAGIVTQSPSIMDLVKCDGAAFLYHGKYYPLGVAPSEVQIKDVVEWLLANHADSTGLSTDSLGDAGYPGAAALGDAVCGMAVAYITKRDFLFWFRSHTAKEIKWGGAKHHPEDKDDGQRMHPRSSFQAFLEVVKSRSQPWETAEMDAIHSLQLILRDSFKESEAAMNSKVVDGVVQPCRDMAGEQGIDELGAVAREMVRLIETATVPIFAVDAGGCINGWNAKIAELTGLSVEEAMGKSLVSDLIYKENEATVNKLLSRALRGDEEKNVEVKLKTFSPELQGKAVFVVVNACSSKDYLNNIVGVCFVGQDVTSQKIVMDKFINIQGDYKAIVHSPNPLIPPIFAADENTCCLEWNMAMEKLTGWSRSEVIGKMIVGEVFGSCCMLKGPDALTKFMIVLHNAIGGQDTDKFPFPFFDRNGKFVQALLTANKRVSLEGKVIGAFCFLQIPSPELQQALAVQRRQDTECFTKAKELAYICQVIKNPLSGMRFANSLLEATDLNEDQKQLLETSVSCEKQISRIVGDMDLESIEDGSFVLKREEFFLGSVINAIVSQAMFLLRDRGLQLIRDIPEEIKSIEVFGDQIRIQQLLAEFLLSIIRYAPSQEWVEIHLSQLSKQMADGFAAIRTEFRMACPGEGLPPELVRDMFHSSRWTSPEGLGLSVCRKILKLMNGEVQYIRESERSYFLIILELPVPRKRPLSTASGSGDMMLMMPY
partner: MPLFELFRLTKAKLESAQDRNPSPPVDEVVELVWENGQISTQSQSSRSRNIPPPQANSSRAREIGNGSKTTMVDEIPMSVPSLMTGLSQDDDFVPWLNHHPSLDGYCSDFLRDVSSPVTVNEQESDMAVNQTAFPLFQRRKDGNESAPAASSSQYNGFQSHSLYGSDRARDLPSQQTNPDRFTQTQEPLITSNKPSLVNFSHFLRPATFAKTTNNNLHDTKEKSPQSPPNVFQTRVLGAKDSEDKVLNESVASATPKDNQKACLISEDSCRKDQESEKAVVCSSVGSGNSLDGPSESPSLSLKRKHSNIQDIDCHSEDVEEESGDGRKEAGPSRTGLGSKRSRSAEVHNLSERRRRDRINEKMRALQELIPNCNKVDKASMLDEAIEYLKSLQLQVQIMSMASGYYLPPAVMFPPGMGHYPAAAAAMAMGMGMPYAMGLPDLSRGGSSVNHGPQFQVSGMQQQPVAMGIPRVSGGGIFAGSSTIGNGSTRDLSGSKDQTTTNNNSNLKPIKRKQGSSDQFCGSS
B2: Phytochrome B (Oryza sativa subsp. japonica (Rice)), Q10MG9 (parent)
chain: MASGSRATPTRSPSSARPAAPRHQHHHSQSSGGSTSRAGGGGGGGGGGGGGAAAAESVSKAVAQYTLDARLHAVFEQSGASGRSFDYTQSLRASPTPSSEQQIAAYLSRIQRGGHIQPFGCTLAVADDSSFRLLAYSENTADLLDLSPHHSVPSLDSSAVPPPVSLGADARLLFAPSSAVLLERAFAAREISLLNPLWIHSRVSSKPFYAILHRIDVGVVIDLEPARTEDPALSIAGAVQSQKLAVRAISRLQALPGGDVKLLCDTVVEYVRELTGYDRVMVYRFHEDEHGEVVAESRRNNLEPYIGLHYPATDIPQASRFLFRQNRVRMIADCHAAPVRVIQDPALTQPLCLVGSTLRSPHGCHAQYMANMGSIASLVMAVIISSGGDDDHNISRGSIPSAMKLWGLVVCHHTSPRCIPFPLRYACEFLMQAFGLQLNMELQLAHQLSEKHILRTQTLLCDMLLRDSPTGIVTQSPSIMDLVKCDGAALYYHGKYYPLGVTPTEVQIKDIIEWLTMCHGDSTGLSTDSLADAGYPGAAALGDAVSGMAVAYITPSDYLFWFRSHTAKEIKWGGAKHHPEDKDDGQRMHPRSSFKAFLEVVKSRSLPWENAEMDAIHSLQLILRDSFRDSAEGTSNSKAIVNGQVQLGELELRGIDELSSVAREMVRLIETATVPIFAVDTDGCINGWNAKVAELTGLSVEEAMGKSLVNDLIFKESEETVNKLLSRALRGDEDKNVEIKLKTFGPEQSKGPIFVIVNACSSRDYTKNIVGVCFVGQDVTGQKVVMDKFINIQGDYKAIVHNPNPLIPPIFASDENTCCSEWNTAMEKLTGWSRGEVVGKLLVGEVFGNCCRLKGPDALTKFMIVLHNAIGGQDCEKFPFSFFDKNGKYVQALLTANTRSRMDGEAIGAFCFLQIASPELQQAFEIQRHHEKKCYARMKELAYIYQEIKNPLNGIRFTNSLLEMTDLKDDQRQFLETSTACEKQMSKIVKDASLQSIEDGSLVLEKGEFSLGSVMNAVVSQVMIQLRERDLQLIRDIPDEIKEASAYGDQYRIQQVLCDFLLSMVRFAPAENGWVEIQVRPNIKQNSDGTDTMLFLFRFACPGEGLPPEIVQDMFSNSRWTTQEGIGLSICRKILKLMGGEVQYIRESERSFFHIVLELPQPQQAASRGTS
partner: B1 partner
B3: Phytochrome A (Arabidopsis thaliana (Mouse-ear cress)), P14712 (parent)
chain: MSGSRPTQSSEGSRRSRHSARIIAQTTVDAKLHADFEESGSSFDYSTSVRVTGPVVENQPPRSDKVTTTYLHHIQKGKLIQPFGCLLALDEKTFKVIAYSENASELLTMASHAVPSVGEHPVLGIGTDIRSLFTAPSASALQKALGFGDVSLLNPILVHCRTSAKPFYAIIHRVTGSIIIDFEPVKPYEVPMTAAGALQSYKLAAKAITRLQSLPSGSMERLCDTMVQEVFELTGYDRVMAYKFHEDDHGEVVSEVTKPGLEPYLGLHYPATDIPQAARFLFMKNKVRMIVDCNAKHARVLQDEKLSFDLTLCGSTLRAPHSCHLQYMANMDSIASLVMAVVVNEEDGEGDAPDATTQPQKRKRLWGLVVCHNTTPRFVPFPLRYACEFLAQVFAIHVNKEVELDNQMVEKNILRTQTLLCDMLMRDAPLGIVSQSPNIMDLVKCDGAALLYKDKIWKLGTTPSEFHLQEIASWLCEYHMDSTGLSTDSLHDAGFPRALSLGDSVCGMAAVRISSKDMIFWFRSHTAGEVRWGGAKHDPDDRDDARRMHPRSSFKAFLEVVKTRSLPWKDYEMDAIHSLQLILRNAFKDSETTDVNTKVIYSKLNDLKIDGIQELEAVTSEMVRLIETATVPILAVDSDGLVNGWNTKIAELTGLSVDEAIGKHFLTLVEDSSVEIVKRMLENALEGTEEQNVQFEIKTHLSRADAGPISLVVNACASRDLHENVVGVCFVAHDLTGQKTVMDKFTRIEGDYKAIIQNPNPLIPPIFGTDEFGWCTEWNPAMSKLTGLKREEVIDKMLLGEVFGTQKSCCRLKNQEAFVNLGIVLNNAVTSQDPEKVSFAFFTRGGKYVECLLCVSKKLDREGVVTGVFCFLQLASHELQQALHVQRLAERTAVKRLKALAYIKRQIRNPLSGIMFTRKMIEGTELGPEQRRILQTSALCQKQLSKILDDSDLESIIEGCLDLEMKEFTLNEVLTASTSQVMMKSNGKSVRITNETGEEVMSDTLYGDSIRLQQVLADFMLMAVNFTPSGGQLTVSASLRKDQLGRSVHLANLEIRLTHTGAGIPEFLLNQMFGTEEDVSEEGLSLMVSRKLVKLMNGDVQYLRQAGKSSFIITAELAAANK
partner: B1 partner

Variants of: B1
Details: with pif3_arath PIF3, O80536

Row | effect of a mutation on the interaction | Variant
1 | decreasing interaction | E812K
2 | decreasing interaction | A750V

Variants of: B2
Details: with pif3_arath PIF3, O80536

Row | effect of a mutation on the interaction | Variant
3 | decreasing interaction | E821K
4 | decreasing interaction | A759V

Variants of: B3
Details: with pif3_arath PIF3, O80536

Row | effect of a mutation on the interaction | Variant
5 | decreasing interaction | G787E
6 | decreasing interaction | A715V
